Test system: peptide library, one residue held at a place counted from the S/T acceptor
Assay: relative phosphorylation of the sub-library (ratio to the mean residue at this position); higher = residue favoured
Summary of the method: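 Purified recombinant kinases, either human or orthologue constructs, were incubated in 384-well plates with biotinylated degenerate peptide sub-libraries. Each sub-library fixed one residue at one position around a central Ser/Thr. Peptides at 50 μM and 50 μM ATP spiked with γ-32P-ATP were used for 90 min under kinase-specific conditions, and spots on streptavidin membranes were phosphorimaged and quantified by densitometry. Relative sub-library phosphorylation is expressed as a ratio to the mean residue at that position.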

NEK9, construct: Full length (D347-732), human, sequence (Q8TD19 whole entry, looked up): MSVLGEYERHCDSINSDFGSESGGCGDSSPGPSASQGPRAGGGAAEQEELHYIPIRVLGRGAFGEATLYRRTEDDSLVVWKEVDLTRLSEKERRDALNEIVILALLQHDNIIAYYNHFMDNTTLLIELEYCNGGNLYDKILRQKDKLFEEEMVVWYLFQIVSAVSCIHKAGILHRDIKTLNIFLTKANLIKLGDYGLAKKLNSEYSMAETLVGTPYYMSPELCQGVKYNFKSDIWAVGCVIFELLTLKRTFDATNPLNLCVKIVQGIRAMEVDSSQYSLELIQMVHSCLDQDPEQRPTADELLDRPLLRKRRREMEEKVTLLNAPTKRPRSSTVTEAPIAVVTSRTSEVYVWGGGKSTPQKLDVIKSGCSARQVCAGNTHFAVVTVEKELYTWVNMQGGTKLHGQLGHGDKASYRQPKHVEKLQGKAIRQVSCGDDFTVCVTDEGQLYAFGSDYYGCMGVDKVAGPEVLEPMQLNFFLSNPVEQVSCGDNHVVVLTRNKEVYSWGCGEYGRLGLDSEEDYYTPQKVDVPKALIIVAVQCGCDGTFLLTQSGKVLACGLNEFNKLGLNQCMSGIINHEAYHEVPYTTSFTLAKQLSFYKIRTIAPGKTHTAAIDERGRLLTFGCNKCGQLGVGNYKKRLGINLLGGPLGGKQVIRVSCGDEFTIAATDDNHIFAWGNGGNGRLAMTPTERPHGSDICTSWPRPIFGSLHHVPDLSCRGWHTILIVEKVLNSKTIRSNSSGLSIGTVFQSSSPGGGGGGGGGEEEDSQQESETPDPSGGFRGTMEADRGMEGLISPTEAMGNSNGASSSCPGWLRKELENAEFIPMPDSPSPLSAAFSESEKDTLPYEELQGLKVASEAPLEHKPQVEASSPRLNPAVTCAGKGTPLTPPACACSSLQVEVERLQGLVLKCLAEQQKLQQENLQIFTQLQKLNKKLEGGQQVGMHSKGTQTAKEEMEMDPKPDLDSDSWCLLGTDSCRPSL
NEK2, construct: Full length, human, sequence (P51955 whole entry, looked up): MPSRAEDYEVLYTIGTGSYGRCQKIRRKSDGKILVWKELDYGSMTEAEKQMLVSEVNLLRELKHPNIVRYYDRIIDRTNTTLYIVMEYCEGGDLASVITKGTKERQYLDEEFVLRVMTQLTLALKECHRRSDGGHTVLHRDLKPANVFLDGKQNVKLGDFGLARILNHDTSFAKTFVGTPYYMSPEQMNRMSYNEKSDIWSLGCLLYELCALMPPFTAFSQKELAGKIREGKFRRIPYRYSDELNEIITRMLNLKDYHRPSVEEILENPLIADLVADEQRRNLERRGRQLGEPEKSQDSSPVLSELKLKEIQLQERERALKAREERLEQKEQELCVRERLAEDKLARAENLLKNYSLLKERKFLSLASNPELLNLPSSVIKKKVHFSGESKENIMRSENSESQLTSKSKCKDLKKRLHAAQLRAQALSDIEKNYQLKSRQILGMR

NEK9, construct: Full length (D347-732), human (from UniProt Q8TD19)
relative phosphorylation
Settings | at +1 | at +2 | at +3 | at +4 | at -1 | at -2 | at -3 | at -4 | at -5
A fixed | 0.751 | 1.08 | 1.02 | 1.03 | 1 | 1.33 | 1.05 | 1.11 | 1.19
D fixed | 0.268 | 0.44 | 0.594 | 0.754 | 0.889 | 1.27 | 0.574 | 1.06 | 1.04
E fixed | 0.256 | 0.294 | 0.552 | 0.851 | 0.854 | 0.851 | 0.564 | 0.889 | 0.918
F fixed | 1.37 | 0.606 | 1.04 | 0.775 | 0.843 | 1 | 1.43 | 0.9 | 1.07
G fixed | 0.844 | 1.04 | 1.22 | 1.43 | 0.819 | 1.28 | 1.22 | 1.3 | 1.3
H fixed | 0.912 | 1.42 | 1.14 | 1.18 | 1.21 | 1.08 | 0.953 | 1.09 | 1.02
I fixed | 1.49 | 0.842 | 0.95 | 0.744 | 0.759 | 0.584 | 0.488 | 0.78 | 0.755
K fixed | 0.951 | 1.69 | 1.12 | 1.25 | 1.12 | 0.543 | 0.73 | 1.01 | 1.01
L fixed | 1.27 | 0.611 | 1.01 | 0.839 | 1.28 | 1.21 | 1.7 | 0.96 | 0.824
M fixed | 1.54 | 0.782 | 0.956 | 0.899 | 1.39 | 1.53 | 2.32 | 1.12 | 0.953
N fixed | 0.749 | 1.19 | 0.97 | 1.06 | 1.3 | 1.59 | 0.944 | 0.928 | 1.04
P fixed | 0.209 | 0.57 | 0.921 | 1.12 | 0.426 | 0.667 | 0.937 | 1.12 | 0.991
Q fixed | 1.14 | 0.892 | 0.943 | 1.01 | 1.12 | 0.996 | 0.808 | 0.85 | 0.764
R fixed | 1.42 | 2.78 | 1.2 | 1.38 | 1.24 | 0.591 | 0.748 | 0.879 | 1.06
V fixed | 1.3 | 0.894 | 0.887 | 0.696 | 0.688 | 0.461 | 0.407 | 0.688 | 0.895
W fixed | 1.14 | 0.755 | 1.23 | 1.13 | 0.941 | 1.02 | 1.14 | 1.36 | 1.22
Y fixed | 1.39 | 1.12 | 1.24 | 0.855 | 1.12 | 0.996 | 1 | 0.963 | 0.936
pThr fixed | 0.614 | 0.45 | 0.557 | 0.85 | 0.364 | 0.573 | 0.816 | 0.901 | 0.836
pTyr fixed | 0.517 | 0.399 | 0.599 | 0.722 | 1.01 | 0.91 | 0.826 | 0.787 | 0.886

CDC42BPB, construct: aa1-473, human (from UniProt Q9Y5S2)
relative phosphorylation
Settings | at +1 | at +2 | at +3 | at +4 | at -1 | at -2 | at -3 | at -4 | at -5
A fixed | 0.871 | 1.22 | 0.922 | 0.791 | 0.734 | 0.478 | 0.556 | 0.951 | 0.922
D fixed | 0.4 | 0.468 | 0.548 | 0.721 | 0.379 | 0.196 | 0.199 | 0.472 | 0.427
E fixed | 0.435 | 0.373 | 0.654 | 0.667 | 0.313 | 0.181 | 0.204 | 0.506 | 0.479
F fixed | 0.776 | 0.935 | 1.01 | 0.821 | 0.552 | 0.442 | 0.381 | 0.718 | 0.843
G fixed | 0.803 | 1.1 | 1.42 | 1.07 | 0.883 | 0.45 | 0.44 | 0.974 | 1.04
H fixed | 0.962 | 1.19 | 1.2 | 1.11 | 1.21 | 0.989 | 1.03 | 1.06 | 0.99
I fixed | 1.55 | 1.32 | 0.96 | 0.924 | 0.572 | 0.419 | 0.382 | 0.651 | 0.788
K fixed | 0.865 | 1.58 | 1.03 | 1.34 | 2.46 | 2.78 | 2.55 | 2.46 | 2.54
L fixed | 1.74 | 0.816 | 0.841 | 0.852 | 1.36 | 0.423 | 0.326 | 0.7 | 0.645
M fixed | 1.24 | 0.823 | 0.944 | 0.919 | 1.04 | 0.459 | 0.36 | 0.775 | 0.664
N fixed | 1.89 | 0.819 | 0.918 | 0.856 | 1.2 | 0.787 | 0.524 | 0.756 | 0.812
P fixed | 0.404 | 0.842 | 0.888 | 1.38 | 0.786 | 0.433 | 0.371 | 0.873 | 0.875
Q fixed | 1.08 | 0.699 | 0.829 | 1.08 | 1.09 | 0.798 | 0.648 | 0.851 | 0.786
R fixed | 1.41 | 1.65 | 1.52 | 1.52 | 2.15 | 6.46 | 7.75 | 3.03 | 2.81
V fixed | 0.983 | 1.13 | 0.936 | 0.787 | 0.667 | 0.397 | 0.335 | 0.637 | 0.768
W fixed | 0.852 | 0.934 | 1.06 | 1.23 | 0.648 | 0.718 | 0.524 | 0.849 | 0.756
Y fixed | 0.736 | 1.12 | 1.33 | 0.93 | 0.97 | 0.591 | 0.425 | 0.735 | 0.856
pThr fixed | 0.479 | 0.762 | 0.582 | 0.698 | 0.344 | 0.329 | 0.352 | 0.647 | 0.611
pTyr fixed | 0.553 | 0.745 | 0.707 | 0.685 | 0.467 | 0.319 | 0.545 | 0.558 | 0.62

NEK2, construct: Full length, human (from UniProt P51955)
relative phosphorylation
Settings | at +1 | at +2 | at +3 | at +4 | at -1 | at -2 | at -3 | at -4 | at -5
A fixed | 0.655 | 1.03 | 0.897 | 0.958 | 1.25 | 1.5 | 1.09 | 1.06 | 1.3
D fixed | 0.189 | 0.318 | 0.782 | 0.806 | 0.644 | 0.552 | 0.307 | 0.772 | 0.938
E fixed | 0.203 | 0.195 | 0.916 | 0.811 | 0.81 | 0.438 | 0.301 | 0.73 | 0.694
F fixed | 1.19 | 0.835 | 0.878 | 0.906 | 0.783 | 1.2 | 2.37 | 1.2 | 1.3
G fixed | 0.656 | 0.834 | 1.06 | 1.12 | 0.959 | 1.29 | 1.23 | 1.29 | 1.14
H fixed | 1.03 | 1.43 | 1.08 | 1.04 | 1.03 | 1.16 | 1.07 | 1.11 | 1
I fixed | 1.5 | 0.624 | 0.864 | 0.775 | 0.561 | 0.636 | 0.466 | 0.818 | 0.767
K fixed | 0.846 | 1.69 | 1.18 | 1.4 | 1.53 | 1.42 | 0.638 | 1.07 | 1.19
L fixed | 1.79 | 0.638 | 1.06 | 0.949 | 0.917 | 0.799 | 1.89 | 1.04 | 0.828
M fixed | 2.1 | 0.873 | 0.899 | 0.875 | 1.4 | 1.11 | 1.77 | 0.964 | 0.862
N fixed | 0.85 | 0.888 | 1.02 | 0.964 | 1.04 | 0.989 | 0.733 | 0.931 | 0.884
P fixed | 0.151 | 0.771 | 1.08 | 1.14 | 0.23 | 0.405 | 0.965 | 0.963 | 1.04
Q fixed | 1.26 | 0.696 | 0.874 | 1.06 | 1.21 | 0.852 | 0.661 | 0.881 | 0.81
R fixed | 1.26 | 3.71 | 1.5 | 1.45 | 1.98 | 1.75 | 0.77 | 0.902 | 1.18
V fixed | 1.18 | 0.71 | 0.875 | 0.745 | 0.743 | 0.65 | 0.48 | 0.828 | 0.934
W fixed | 0.983 | 0.748 | 0.916 | 1.14 | 0.85 | 1.06 | 1.11 | 1.44 | 1.1
Y fixed | 1.17 | 1.01 | 1.13 | 0.874 | 1.08 | 1.19 | 1.15 | 1.01 | 1.03
pThr fixed | 0.425 | 0.383 | 0.557 | 0.688 | 0.278 | 0.449 | 0.545 | 0.747 | 0.658
pTyr fixed | 0.547 | 0.275 | 0.758 | 0.62 | 0.697 | 0.525 | 0.752 | 0.642 | 0.66

Reference: the supplement of paper PMC9876800
